Test [1] addresses rabbit polyclonal anti-BSA antibody (IgG) (rabbit) (UniProt P01870). The test is described as follows: SPR; pH 4.0. (In general: Surface plasmon resonance follows binding to a sensor surface in real time, without labels.)
Test [2] has the same target. The test is described as follows: SPR; pH 4.6.
Test [3] shares this target. The test is described as follows: SPR; pH 7.5.
Test [4] deals with human plasma IgG3 (human). The test is described as follows: SPR; BIAcore 3000; human IgG subclass immobilised on CM5 chip by amine coupling (200-1000 RU); FcγRI mutants as analytes; steady-state fitting.
Test [5] has as its target human IgG2 (human). Described as above.
The target in test [6] is human plasma IgG4 (human). Described as above.
The target of test [7] is human plasma IgG3 (human). Nature of the test: SPR; BIAcore 3000; human IgG subclass immobilised on CM5 chip by amine coupling (200-1000 RU); wild type FcγRI as analyte; kinetic curve fitting.
The target of test [8] is human IgG2 (human). The description is as above.
The target in test [9] is human plasma IgG4 (human). Described as above.
The target in test [10] is VRC01 D265R mutant antibody (human). Nature of the test: BLI; Octet R8; VRC01 or D265R mutant captured on Protein A biosensors (~5 nm); serial dilutions of FcγRI (Zymogenetics); 10mM Hepes pH7.5, 0.15M NaCl; 1:1 binding model.
Sequence of VRC01 D265R mutant antibody (human) (light, as listed by the source, chain 2 of 2, other chains not shown): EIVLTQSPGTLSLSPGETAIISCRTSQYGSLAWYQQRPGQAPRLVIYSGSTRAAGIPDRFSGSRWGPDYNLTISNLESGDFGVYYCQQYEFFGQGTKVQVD
Test [11] addresses VRC01, human IgG1 isotype anti-gp120 antibody, wildtype (human). The test is described as above.

From PMC9940316 come the findings set out here.

Sequence of rabbit polyclonal anti-BSA antibody (IgG) (rabbit) (P01870 whole entry, looked up): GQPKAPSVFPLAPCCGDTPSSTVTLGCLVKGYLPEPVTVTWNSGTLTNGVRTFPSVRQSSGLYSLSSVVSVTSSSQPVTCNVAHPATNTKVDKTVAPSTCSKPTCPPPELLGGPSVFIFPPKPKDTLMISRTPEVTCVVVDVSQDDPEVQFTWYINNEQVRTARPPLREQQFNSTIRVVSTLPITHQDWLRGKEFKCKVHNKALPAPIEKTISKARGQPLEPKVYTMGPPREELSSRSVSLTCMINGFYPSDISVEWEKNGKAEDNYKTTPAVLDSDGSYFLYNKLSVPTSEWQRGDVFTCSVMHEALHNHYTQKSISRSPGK
Sequence of recombinant human FcγRI, wildtype (P12314 21-282): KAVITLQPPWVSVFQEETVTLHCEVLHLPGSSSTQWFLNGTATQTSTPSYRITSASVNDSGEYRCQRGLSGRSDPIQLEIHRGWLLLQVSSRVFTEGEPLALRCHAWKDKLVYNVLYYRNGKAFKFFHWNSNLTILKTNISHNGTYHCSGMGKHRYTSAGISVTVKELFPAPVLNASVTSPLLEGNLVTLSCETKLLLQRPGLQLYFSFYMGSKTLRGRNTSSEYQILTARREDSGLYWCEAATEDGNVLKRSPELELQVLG
Sequence of VRC01, human IgG1 isotype anti-gp120 antibody, wildtype (human) (light, as listed by the source, chain 2 of 2, other chains not shown): as the sequence (light, as listed by the source, chain 2 of 2, other chains not shown) above

As usually defined, the Kd is a measure of binding affinity in units of concentration. A high value points to weaker binding. For BSA, the Kd came out at 1.8 nM in test [1], 10.1 nM in test [2] and 7.8 nM in test [3].

Turning to “FcγRI H174R variant (bovine FG-loop variant of human FcγRI) (from UniProt P12314 21-282) (receptor)”, the Kd in [4] came to 24.2 nM; in test [5], 32.8 nM; in test [6] it was 109 nM.

“recombinant human FcγRI, wildtype (from UniProt P12314 21-282) (receptor)”: the Kd worked out at 28.6 nM in [7]; 41 nM in [8]; 65.7 nM in test [9]; 1160 nM in [10]; 12 nM in test [11].
